Values of other authors in PMC12564508.

Target: NS4B (Dengue virus) (UniProt P27909)

Q: For NS4A (from UniProt P27909), which Kd is on record?
A: The Kd was 50 nM.
